Assay [1] deals with cyclooxygenase-2 (COX-2), endogenous in human neutrophils (human (endogenous in neutrophils)) (UniProt P35354).
The target is the same in assay [2]. This is another data set of the same source.

Sequence of UniProt P35354 (P35354 18-604): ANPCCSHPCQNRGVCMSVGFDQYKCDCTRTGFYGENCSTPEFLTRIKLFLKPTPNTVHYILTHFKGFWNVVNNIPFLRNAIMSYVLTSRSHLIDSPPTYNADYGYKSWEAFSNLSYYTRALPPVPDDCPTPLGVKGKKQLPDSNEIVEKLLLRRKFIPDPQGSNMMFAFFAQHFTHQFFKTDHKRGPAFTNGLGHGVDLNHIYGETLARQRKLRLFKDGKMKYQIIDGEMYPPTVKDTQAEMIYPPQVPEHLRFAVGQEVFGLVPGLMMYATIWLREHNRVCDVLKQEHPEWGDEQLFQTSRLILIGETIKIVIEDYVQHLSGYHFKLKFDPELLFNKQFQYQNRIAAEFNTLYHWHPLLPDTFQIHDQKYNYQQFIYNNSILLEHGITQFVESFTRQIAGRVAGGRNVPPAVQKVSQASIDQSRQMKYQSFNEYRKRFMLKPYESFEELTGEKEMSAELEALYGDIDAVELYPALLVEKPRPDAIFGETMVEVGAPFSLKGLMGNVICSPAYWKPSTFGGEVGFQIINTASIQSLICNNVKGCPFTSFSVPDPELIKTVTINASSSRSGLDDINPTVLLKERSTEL

In the case of “human recombinant nucleobindin (hrNuc), full length (from UniProt Q02818 27-461) (natural protein)”, the PGE2 production (ELISA) from arachidonic acid (10 µM) by purified human recombinant COX-2 (1 U/sample, Cayman) with increasing amounts of hrNuc (fold over basal levels) in assay [1] is 4. This substance also returned a PGE2 production (ELISA) from arachidonic acid (10 µM) by lysates of COX-2-expressing neutrophils with increasing quantities of hrNuc in assay [2] of 5 fold.

For the origin of these results see article PMC2373884.
